The data set has as its target KLF4 (Homo sapiens) (UniProt O43474). Description: DPI-ELISA competition. To be noted: KLF4 0-150 ng against 80 ng Sp1; 2 pmol DNA; EMSA: 2 ug nuclear extract or 50 ng KLF4, 30 min on ice, 6% native PAGE; DPI-ELISA: 2 pmol biotin-DNA, 2 h; buffer, salt and pH not stated.
Sequence of UniProt O43474 (O43474 whole entry): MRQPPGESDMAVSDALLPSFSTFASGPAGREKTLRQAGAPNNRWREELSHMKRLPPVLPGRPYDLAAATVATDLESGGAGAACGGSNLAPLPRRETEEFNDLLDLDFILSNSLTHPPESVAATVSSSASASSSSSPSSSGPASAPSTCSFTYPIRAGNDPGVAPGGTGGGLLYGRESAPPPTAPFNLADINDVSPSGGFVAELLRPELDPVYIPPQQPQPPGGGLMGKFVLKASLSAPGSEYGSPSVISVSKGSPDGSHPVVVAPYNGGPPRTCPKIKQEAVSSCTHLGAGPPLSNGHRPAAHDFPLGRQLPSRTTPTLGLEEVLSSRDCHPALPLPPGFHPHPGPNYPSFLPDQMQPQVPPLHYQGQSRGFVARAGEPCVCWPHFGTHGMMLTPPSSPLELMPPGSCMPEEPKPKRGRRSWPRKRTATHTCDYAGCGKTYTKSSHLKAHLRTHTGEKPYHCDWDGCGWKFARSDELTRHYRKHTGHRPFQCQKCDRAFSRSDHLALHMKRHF

As for “GGTCCCAGAGCACGAGCCCCCGCCCCCGGTGGCCCC (double strand) [CPI-17 GC box 2 biotinylated]”, the IC50 turned out to be 29 ng.

The values are drawn from article PMC6517596.
